Marks after values point to notes of the source that are not given here.
Key:
VDR [1] = test: expression of VDR gene (mRNA) in MC3T3-E1 cells under LF stimulation; format: cell-based; details: FIG. 1
VDR [2] = test: VDR protein expression in cytoplasm and nucleus of osteoblasts after LF for different times; format: cell-based
Protocol: After verifying that LF promotes high expression of VDR at the transcription level, it is further verified at the protein level. VDR exists in the cytoplasm and nucleus, but plays a major role in the nucleus. The inventors stimulated osteoblasts for different times using LF to measure the expression of VDR in the cytoplasm and nucleus. […] In the nucleus, VDR expression began to increase at 1 hour after LF treatment, and reaches the maximum at 2-6 h.

osteoblasts = test: proliferation of osteoblasts promoted by LF (MTT method); format: cell-based; details: FIG. 4
Protocol: Based on transcriptome data, the inventors verified that LF can promote the high expression of VDR at both the gene and protein levels. In order to confirm the role of this pathway in the promotion of osteoblast proliferation and differentiation by LF, the inventors first designed a VDR siRNA to achieve the purpose of transiently silencing VDR genes. The principle of siRNA is the post-transcriptional gene silencing mechanism that blocks the expression of corresponding gene. 20 μM VDR siRNA was added to osteoblasts, the proliferation rate of osteoblasts promoted by LF was detected by MTT method, and the ALP activity of osteoblasts promoted by LF was detected by enzyme-linked immunoassay.
The inventors first confirmed that LF promotes the proliferation and differentiation of osteoblasts through the regulation of the VDR pathway using the osteoblast model. Since the osteogenic effect of VDR is mainly achieved by vitamin D, in order to simulate the normal physiological environment, the inventors treated osteoblasts with both 1 nM of […] (the active form of vitamin D) and LF, and then studied the proliferation and differentiation of osteoblasts.

[3] = blood biochemical markers in mice after oral LF; format: in vivo; details: for 25-OH VD3 / Ca / P / PTH: blood, Mean ± SD, n = 8
Source text: Generally, the content of VD is reflected by measuring the content of 25-OH D3 in the serum. […] The contents of calcium and phosphorus in serum reflect the degree of absorption of calcium and phosphorus in the small intestine. […] However, oral administration of LF still has no effect on serum calcium and phosphorus content.

[4] = contents of calcium and phosphorus in urine of mice; format: in vivo; details: LF1000 group
Protocol: In order to reflect the reabsorption of calcium and phosphorus by the kidney, the contents of calcium and phosphorus in urine were measured. In the VD-deficient groups, the calcium content in the LF1000 group is reduced by 67% compared with the control group, and the phosphorus content in the LF1000 group is reduced by 72% compared with the control group; in the VD-normal groups, the calcium content in the LF1000 group is reduced by 80% compared with the control group, and the phosphorus content in the LF1000 group is reduced by 78% compared with the control group.

[5] = bone mineral density of the femur of mice; format: in vivo
Source text: The factors affecting bone mineral density mainly include bone mass factors and bone quality factors. Decreased bone mass is an important factor in the occurrence of common bone diseases, and bone mineral density (BMD) is an important indicator for quantifying bone mass in bone mineral metabolism. The BMD index is of great significance for the prediction of fracture risk, the early diagnosis of osteoporosis and the evaluation of intervention measures.

[6] = micro-CT microstructure of trabecular bone of distal femur of mice; format: in vivo; details: for BV/TV / TPF / Tb · N / Tb · Sp / Tb · Th: femoral ROI, Mean ± SD, n = 8
Source text: According to the micro-building theory, the strength of the trabecular bone depends not only on the BMD, but also on its three-dimensional structure. In pathology, bone damage should include both “quantitative” change and “qualitative” changes. Quantitative change is the decline of BMD, while qualitative change is the change of the microstructure of trabecular bone, such as trabecular number and thickness, trabecular connection, and so on. Trabecular bone plays a major role in the microstructure. Increasing the cross structure of each trabecular bone can increase the supporting strength of the bone, but has basically no effect on bone mineral density.
The distal femur is considered a sensitive site for detecting bone health due to high cancellous bone content and rapid bone turnover. Therefore, the inventors analyzed the microstructure of trabecular bone of the distal femur using micro-CT. […] Therefore, this study mainly analyzed the microstructure of the cancellous trabecular bone of the femur in each group. The three-dimensional structure image of the trabecular bone of the ROI region of the mouse femur obtained by micro-CT reconstruction is shown in FIG. 7A and the longitudinal section is shown in FIG. 7B.
In order to quantitatively analyze the structure of the trabecular bone, the spatial structure parameters of the trabecular bone of the ROI region shown in FIG. 7 were also measured. Trabecular bone structure parameters include the followings: Bone Volume Fraction (BV/TV), which is the ratio of the total volume of voxels representing the bone structure in the ROI to the total volume of all voxels in the region, and when the bone is unhealthy, the trabecular bone is lost and the BV/TV value decreases; trabecular thickness (Tb·Th), which is the average thickness of trabecular bone, and when the bone is unhealthy, the value of Tb·Th decreases, and in porous materials, Tb·Th can be understood as thickness of the pore wall; trabecular number (Tb·N), which is the number of intersections of bone tissue and non-bone tissue within a given length, and when the bone is unhealthy, the value of Tb·N decreases; trabecular separation (Tb·Sp), which is the average width of the medullary cavity between the trabecular bones. An increase in Tb·Sp indicates an increased bone resorption and possible bone loss. Tb. Sp can be understood as porosity. The trabecular pattern factor is used to evaluate the morphology of the trabecular bone. This parameter is determined by the surface area and volume of the trabecular bone, and is a parameter obtained through 3D simulation. The smaller the TPF value, the better the connectivity between trabecular bones. BV/TV, Tb·Th, Tb·N, and Tb·Sp are parameters that can be provided by both micro-CT and bone tissue morphometry. The TPF value is a parameter based on the analysis of the three-dimensional structure of the trabecular bone, can be obtained from micro-CT analysis, but cannot be provided by the traditional two-dimensional method.

VDR [7] = test: immunohistochemistry of VDR expression in mouse kidney, colon and bone tissue; format: in vivo, mice; details: for VDR-positive cell rate in the kidney: FIG. 9; for VDR positive cell rate in the colon (positive cells to total cells in each crypt): FIG. 11
Source text: The immunohistochemical technique was used to detect the expression of VDR in kidney tissues.

VDR [8] = test: Western blot detection of VDR expression in kidney, colon and bone tissue; format: in vivo, mice
Source text: The inventors further verified the expression of VDR in three major tissues, kidney, colon and bone using the Western blot method by extracting the tissue protein.

VDR [9] = test: effect of inhibition of endocytosis (hypertonic, 4° C.) on VDR expression promoted by LF in MC3T3-E1 cells; format: cell-based; details: under the condition of inhibiting endocytosis (hypertonic, 4° C.), FIG. 18
Protocol: Studies have shown that LF can directly enter the cell and bind with DNA to regulate cell gene expression. Therefore, in order to study the effect of endocytosis, cells were stimulated with LF under culture conditions that inhibit endocytosis, and the inhibitory effect on the endocytosis of LF were detected firstly. […] Then, the promotion effect of LF on VDR was measured to analyze whether the inhibition of endocytosis affected the expression of VDR promoted by LF to determine the site of action of LF.

[10] = osteoblasts, after LF treatment
[11] = VD-deficient LF100-administered group as printed (second such column, c3)
[12] = VD-normal LF100-administered group as printed (second such column, c6)
[13] = VD-normal oral-administered LF group

B1: lactoferrin (protein, UniProt P02788 20-710, looked up)
Lactotransferrin: GRRRSVQWCAVSQPEATKCFQWQRNMRKVRGPPVSCIKRDSPIQCIQAIAENRADAVTLDGGFIYEAGLAPYKLRPVAAEVYGTERQPRTHYYAVAVVKKGGSFQLNELQGLKSCHTGLRRTAGWNVPIGTLRPFLNWTGPPEPIEAAVARFFSASCVPGADKGQFPNLCRLCAGTGENKCAFSSQEPYFSYSGAFKCLRDGAGDVAFIRESTVFEDLSDEAERDEYELLCPDNTRKPVDKFKDCHLARVPSHAVVARSVNGKEDAIWNLLRQAQEKFGKDKSPKFQLFGSPSGQKDLLFKDSAIGFSRVPPRIDSGLYLGSGYFTAIQNLRKSEEEVAARRARVVWCAVGEQELRKCNQWSGLSEGSVTCSSASTTEDCIALVLKGEADAMSLDGGYVYTAGKCGLVPVLAENYKSQQSSDPDPNCVDRPVEGYLAVAVVRRSDTSLTWNSVKGKKSCHTAVDRTAGWNIPMGLLFNQTGSCKFDEYFSQSCAPGSDPRSNLCALCIGDEQGENKCVPNSNERYYGYTGAFRCLAENAGDVAFVKDVTVLQNTDGNNNEAWAKDLKLADFALLCLDGKRKPVTEARSCHLAMAPNHAVVSRMDKVERLKQVLLHQQAKFGRNGSDCPDKFCLFQSETKNLLFNDNTECLARLHGKTTYEKYLGPQYVAGITNLKKCSTSPLLEACEFLRK
notes: natural glycoprotein with a molecular weight of 78 KDa in milk
VDR [1]
  VDR expression at mRNA levels: up to 30 fold
VDR [2]; osteoblasts treated with LF
  time after which VDR expression in the cytoplasm began to normalize: 12 h
  time at which VDR expression in the cytoplasm reaches the maximum: 4 h
VDR [2]; osteoblasts treated with LF for two hours
  VDR expression in the cytoplasm: significantly increased
VDR [2]; [10]
  time at which VDR expression in the nucleus began to increase: 1 h
  time at which VDR expression in the nucleus reaches the maximum: 2 to 6 h
osteoblasts
  effect on promoting the proliferation and differentiation of osteoblasts, compared with 1.25(OH)2D3: stronger effect
[3]; [11]
  25-OH VD3: 14.8 ± 2.39^a ng/mL
  Ca: 1.6 ± 0.13^a mmol/L
  P: 2.33 ± 0.42^a mmol/L
  PTH: 93.69 ± 34.61^b pg/mL
[3]; [12]
  25-OH VD3: 27.61 ± 2.93^b ng/mL
  Ca: 2.25 ± 0.17^b mmol/L
  P: 2.26 ± 0.33^a mmol/L
  PTH: 91.91 ± 13.10^b pg/mL
[3]; oral 1000 mg/kg BW LF in the VD-deficient group
  effect on PTH content: reduce the PTH content
[3]; oral administration of LF
  effect on serum calcium and phosphorus content: no effect
[3]; oral administration of LF vs corresponding control groups
  effect on the 25-OH D3 content in serum: no significant effect
[4]; VD-deficient groups
  calcium content in urine, reduction compared with the control group: 67%
  phosphorus content in urine, reduction compared with the control group: 72%
[4]; VD-normal groups
  calcium content in urine, reduction compared with the control group: 80%
  phosphorus content in urine, reduction compared with the control group: 78%
[5]; VD-deficient LF100-administered group, 5 months oral, p<0.05
  bone mineral density of the femur, increase compared with the VD-deficient control group: 5.67%
[5]; oral administration, VD normal
  effect on bone mineral density when VD is normal: further promote bone mineral density
[6]; VD-deficient LF-administered group, FIG. 7
  trabecular bones and cavity in longitudinal section compared with the control group: obviously more trabecular bones and smaller cavity
[6]; VD-deficient groups, low-dose LF group
  BV/TV of the trabecular bone compared with the VD-deficient control group and the VD-normal control group: significantly higher
[6]; [13]
  trabecular structure parameters compared with the control group: comparable to the control group, except for Tb·Th value
[6]; [11]
  BV/TV: 0.252 ± 0.029^b %
  TPF: 7.290 ± 2.128^ab mm^−1
  Tb · N: 5.374 ± 0.501^ab mm^−1
  Tb · Sp: 0.136 ± 0.017^b mm
  Tb · Th: 0.054 ± 0.005^ab mm
[6]; [12]
  BV/TV: 0.28 ± 0.017^ab %
  TPF: 5.599 ± 0.397^b mm^−1
  Tb · N: 6.029 ± 0.586^a mm^−1
  Tb · Sp: 0.141 ± 0.020^b mm
  Tb · Th: 0.057 ± 0.004^ab mm
VDR [7]; VD-deficient LF100-administered group
  VDR-positive cell rate in the kidney: 13.8%
VDR [7]; VD-deficient LF100-administered group, FIG. 13
  VDR positive cell rate in the femur: 75%
VDR [7]; VD-deficient LF1000-administered group
  VDR-positive cell rate in the kidney: 17%
VDR [7]; VD-deficient LF-administered group
  VDR positive cell rate in the colon (positive cells to total cells in each crypt): more than 70%
VDR [7]; VD-normal LF100-administered group
  VDR-positive cell rate in the kidney: 16.3%
VDR [7]; VD-normal LF1000-administered group
  VDR-positive cell rate in the kidney: 16.5%
VDR [7]; [13]
  VDR positive cell rate in the colon (positive cells to total cells in each crypt): ~80%
VDR [8]; FIG. 15
  VDR expression in the colon: effectively promote the expression of VDR
VDR [8]; VD deficiency, LF1000-administered group, FIG. 16
  VDR expression in the femur, higher than that of the control group: 3 times
VDR [8]; VD deficiency, oral lactoferrin, FIG. 14
  VDR expression in the kidney: effectively promote the expression of VDR
VDR [8]; VD-normal oral-administered 100 mg LF/kg BW group, FIG. 16
  VDR expression in the femur, higher than that of the VD normal control group: 2.35 times
VDR [9]
  promotion effect of LF on the expression of VDR in the cytoplasm and nucleus: significantly inhibited

— patent US12214021B2 (CHINA AGRICULTURAL UNIVERSITY, priority 2018, dated 2025)
